Reference: publication PMC3212559, “Large-Scale Protein-Protein Interaction Analysis in Arabidopsis Mesophyll Protoplasts by Split Firefly Luciferase Complementation” (PLoS ONE, 2011)

Assays:
Test in all cases: split reporter (BiFC, NanoBiT); SFLC in living Arabidopsis mesophyll protoplasts: Aux/IAA-FLucN or MYB30-FLucN co-expressed with ARFCTD-FLucC or Aux/IAA-FLucC for 6 hr; 10 µg of each construct, 2×10^4 cells, 96-well plate, D-luciferin; relative activity standardised against ARF5CTD-FLucC + IAA28-FLucN
Conditions in all cases: partners not purified
[1] = target: T1, C-terminal domain (CTD) of ARF5-FLucC (Arabidopsis, UniProt P93024 793-902)
T1 construct: In the ARF-ARF tests the same CTD stood both as ARFCTD-FLucC and as ARFCTD-FLucN; one molecule for both; also called ARF5CTD-FLucC; auxin response factor 5; source: Arabidopsis mesophyll protoplasts, transfected, in living cells (SFLC) and in lysate (co-IP); not shown: FLucC (firefly luciferase aa 394-550)
T1 sequence (looked up): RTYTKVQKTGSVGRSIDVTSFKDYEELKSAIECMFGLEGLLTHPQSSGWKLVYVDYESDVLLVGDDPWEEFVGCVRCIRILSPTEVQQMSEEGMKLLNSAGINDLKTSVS

[2] = target: T2, ARF6 C-terminal domain (CTD)-FLucC (Arabidopsis, UniProt Q9ZTX8 796-935)
T2 construct: In the ARF-ARF tests the same CTD stood both as ARFCTD-FLucC and as ARFCTD-FLucN; one molecule for both; also called ARF6CTD-FLucC; ARFCTD-FLucC; source: Arabidopsis mesophyll protoplasts, transfected, in living cells (SFLC) and in lysate (co-IP); not shown: FLucC (firefly luciferase aa 394-550)
T2 sequence (looked up): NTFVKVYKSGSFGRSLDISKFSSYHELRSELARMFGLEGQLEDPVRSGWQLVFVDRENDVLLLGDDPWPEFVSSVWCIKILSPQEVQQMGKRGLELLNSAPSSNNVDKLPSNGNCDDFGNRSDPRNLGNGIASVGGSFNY

[3] = target: T3, ARF10 C-terminal domain (CTD)-FLucC (Arabidopsis, UniProt Q9SKN5 580-693)
T3 construct: Arabidopsis auxin response factor 10, C-terminal dimerization domain (CTD); In the ARF-ARF tests the same CTD stood both as ARFCTD-FLucC and as ARFCTD-FLucN; one molecule for both; also called ARF10CTD-FLucC; ARFCTD-FLucC; source: Arabidopsis mesophyll protoplasts, transfected, in living cells (SFLC) and in lysate (co-IP); not shown: FLucC (firefly luciferase aa 394-550)
T3 sequence (looked up): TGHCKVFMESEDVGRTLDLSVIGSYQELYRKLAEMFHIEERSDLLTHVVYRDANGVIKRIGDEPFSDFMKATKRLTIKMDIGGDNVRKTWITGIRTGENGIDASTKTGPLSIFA

IAA3-FLucC = target: T4, IAA3-FLucC (Arabidopsis, UniProt Q38822 1-189)
T4 construct: Arabidopsis Aux/IAA protein IAA3; also called Aux/IAA-FLucC; source: Arabidopsis mesophyll protoplasts, transfected, in living cells; not shown: FLucC (firefly luciferase aa 394-550)
T4 sequence (looked up): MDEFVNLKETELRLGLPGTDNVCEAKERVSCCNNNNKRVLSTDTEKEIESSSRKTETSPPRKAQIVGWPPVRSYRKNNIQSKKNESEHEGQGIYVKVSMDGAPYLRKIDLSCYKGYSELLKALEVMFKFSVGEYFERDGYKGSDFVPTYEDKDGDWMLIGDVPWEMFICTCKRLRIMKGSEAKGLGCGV

IAA12-FLucC = target: T5, IAA12-FLucC (Arabidopsis, UniProt Q38830 1-239)
T5 construct: Arabidopsis Aux/IAA protein IAA12; also called Aux/IAA-FLucC; source: Arabidopsis mesophyll protoplasts, transfected, in living cells; not shown: FLucC (firefly luciferase aa 394-550)
T5 sequence (looked up): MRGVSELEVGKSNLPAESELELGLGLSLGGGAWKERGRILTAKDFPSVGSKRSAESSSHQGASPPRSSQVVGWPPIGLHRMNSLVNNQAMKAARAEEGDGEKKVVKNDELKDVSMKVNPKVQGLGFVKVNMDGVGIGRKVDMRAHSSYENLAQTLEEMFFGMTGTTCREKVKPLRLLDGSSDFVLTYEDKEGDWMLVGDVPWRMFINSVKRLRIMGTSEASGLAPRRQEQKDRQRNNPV

IAA28-FLucC = target: T6, IAA28-FLucC (Arabidopsis, UniProt Q9XFM0 1-175)
T6 construct: Arabidopsis Aux/IAA protein IAA28; also called Aux/IAA-FLucC; source: Arabidopsis mesophyll protoplasts, transfected, in living cells; not shown: FLucC (firefly luciferase aa 394-550)
T6 sequence (looked up): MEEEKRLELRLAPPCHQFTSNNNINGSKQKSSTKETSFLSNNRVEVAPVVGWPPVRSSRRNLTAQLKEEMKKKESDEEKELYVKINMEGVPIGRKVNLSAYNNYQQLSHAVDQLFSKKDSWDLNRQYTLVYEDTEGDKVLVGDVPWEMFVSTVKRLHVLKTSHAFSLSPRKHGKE

Measured: relative luciferase activity (standardised against ARF5CTD-FLucC + IAA28-FLucN)

B1: MYB30-FLucN (natural protein, UniProt Q9SCU7 1-323, looked up)
chain: MVRPPCCDKGGVKKGPWTPEEDIILVTYIQEHGPGNWRAVPTNTGLLRCSKSCRLRWTNYLRPGIKRGNFTEHEEKMIVHLQALLGNRWAAIASYLPQRTDNDIKNYWNTHLKKKLNKVNQDSHQELDRSSLSSSPSSSSANSNSNISRGQWERRLQTDIHLAKKALSEALSPAVAPIITSTVTTTSSSAESRRSTSSASGFLRTQETSTTYASSTENIAKLLKGWVKNSPKTQNSADQIASTEVKEVIKSDDGKECAGAFQSFSEFDHSYQQAGVSPDHETKPDITGCCSNQSQWSLFEKWLFEDSGGQIGDILLDENTNFF
notes: transcription factor MYB30, the unrelated protein used as negative control; source: Arabidopsis mesophyll protoplasts, transfected, in living cells; not shown: FLucN (firefly luciferase aa 1-398)
< 0.1: [1] | [2] | [3] | IAA3-FLucC | IAA12-FLucC | IAA28-FLucC
